Test results as given in patent US11760795B2, “Monoclonal antibodies to growth and differentiation factor 15 (GDF-15), and uses thereof for treating cancer cachexia and cancer” (JULIUS-MAXIMILIANS-UNIVERSITÄT WÜRZBURG, priority 2014, dated 2023).

Legend:
cancer cells = experiment: Cytotoxic effects of the antibody (different assays); assay type: cell-based
Excerpt: The strongest antiproliferative effect was observed using the prostate cancer cell line LnCap, which produces lots of GDF-15.

[1] = Study No. 140123: body weight of UACC-257 inoculated mice (cancer-induced weight loss); assay type: in vivo, Balb/c^nu/nu mice; settings: 38 days
Experimental: FIG. 5: Treatment of cancer cachexia with anti-GDF-15 antibodies. […] The changes of the body weight are depicted in percent as compared to the starting body weight on day 0, for a period of 38 days.
(§1) Treatment of cancer-induced weight loss with anti-GDF-15 antibodies. In the underlying animal study No. 140123, 10 Balb/c^nu/nu mice per treatment group were subcutaneously inoculated with 10×10^6 UACC-257 cells per animal in a 1:1 volume ratio with matrigel (100 μl cells+100 μl matrigel). The animals were treated on the same day with the respective antibodies, as indicated below:
The study was carried out in a double-blinded manner for the treatment with the antibodies and for the treatment with PBS.

[2] = Protein A elution at physiological pH and 10 fold concentration via spin columns, turbidity; assay type: physicochemical; settings: TRIS Buffer at physiological pH, from 0.5 mg/ml
Experimental: FIG. 7: Improved solubility of the chimeric and the humanized antibody at physiological pH.
5 mg of antibody (B1-23, chimeric B1-23=“ChimB1-23”, H1L5) were loaded on Proteus™ protein A columns, eluted and collected in a TRIS Buffer at physiological pH. After elution, the quality of the purified antibodies was assessed by Coomassie Brilliant Blue gel analysis. The concentration of the eluted antibodies was measured photometrically as well as in a Bradford assay (Roti-Quant, Carl Roth, Karlsruhe, Germany). […] The antibodies were then 10 fold concentrated via spin columns (Centricon, MWCO 30). […] All concentrated eluates were then centrifuged for 5 min at 13000 rpm in order to precipitate antibody aggregates. The remaining amount of soluble antibodies was finally determined via Bradford assay from the supernatant.

[3] = Study No. 140123: feed consumption of UACC-257 inoculated mice; assay type: in vivo, Balb/c^nu/nu mice
Experimental: as §1
In addition to evaluating the mean body weight of the mice, the feed consumption of the mice was evaluated by pairwise comparisons of the study groups (Table 1).

human Interleukin-5 = human Interleukin-5 (Homo sapiens, UniProt P05113); experiment: Surface plasmon resonance control flow cell with human Interleukin-5; assay type: binding; settings: SPR, same coupling density
Sequence of human Interleukin-5 (P05113 20-134): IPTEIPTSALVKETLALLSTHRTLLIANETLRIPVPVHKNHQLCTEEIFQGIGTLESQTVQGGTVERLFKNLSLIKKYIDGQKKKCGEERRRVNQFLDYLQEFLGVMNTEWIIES

[4] = system: GDF-15 mediated JNK1/2-phosphorylation in immune cells; experiment: JNK1/2 phosphorylation in immune cells (Western Blot); assay type: cell-based; settings: 2 μg antibody, 10 ng/ml GDF-15, 5 minute preincubation
Experimental: FIG. 3: JNK1/2 Phosphorylation in Immune Cells. In order to quantify the Western Blot, the ratio of phosphorylated JNK1/2 to the total amount of JNK was calculated and normalized to the untreated control.
c) Treatment of immune cells with recombinant. GDF-15 led to the phosphorylation of JNK, a kinase, which is activated either by cytokines or by stress. Antagonization of 10 ng/ml GDF-15 with 2 μg mAb-B1-23 (5 minute preincubation at 37°) blocked the GDF-15 mediated JNK1/2-phosphorylation (FIG. 3).

B1: mAb-B1-23: murine IgG2a (kappa) monoclonal anti-human GDF-15 antibody produced by hybridoma cell line B1-23, DSM ACC3142 (antibody, V domains shown)
VH: QVKLQQSGPGILQSSQTLSLTCSFSGFSLSTSGMGVSWIRQPSGKGLEWLAHIYWDDDKRYNPTLKSRLTISKDPSRNQVFLKITSVDTADTATYYCARSSYGAMDYWGQGTSVTVSS
VL: DIVLTQSPKFMSTSVGDRVSVTCKASQNVGTNVAWFLQKPGQSPKALIYSASYRYSGVPDRFTGSGSGTDFTLTISNVQSEDLAEYFCQQYNNFPYTFGGGTKLEIKRTVA
- cytotoxic effects of the antibody (cancer cells): excluded
- body weight change compared to day 0 [1]: increase in body weight
- aggregation after 10 fold concentration [2]: presence of precipitates
- Feed consumption per mouse and day ([3]; average over day 17-34 intervals, with standard deviation): 3.6 ± 0.2 g
- feed consumption compared with groups which did not receive the anti-GDF-15 antibodies ([3]; mouse, in vivo): significantly higher
- binding to human interleukin-5 (human Interleukin-5): no binding
- GDF-15 mediated JNK1/2-phosphorylation [4]: blocked
